The values below come from US20260200999A1, “SYNTHETIC TRANSCRIPTION FACTORS” (ETH ZURICH, priority 2022, published 2026).

Test [1] deals with Response Element-driven mCerulean reporter (MTERF1 binding sites, SEQ ID NO: 42). As to the kind of experiment: mCerulean reporter co-transfection with HumTAP constructs in HEK293 cells (flow cytometry). In kind it is cell-based, human. The note with it: HEK293; for reporter (mCerulean) expression: TAD fused to MTERF158-399, pEF1a-driven, Example 4, FIG. 9B, C. The text has this:
To construct a promoter with Response Elements/MTERF1 binding sites driving the gene of interest, the inventors placed MTERF1 binding sites (SEQ ID NO: 42) upstream a minimal TATA box (SEQ ID NO: 103). An mCerulean fluorescent reporter representing the gene of interest (Gol) was placed downstream of the TATA box. Each of these is referred to as a reporter construct. Five different reporter constructs were made comprising respectively 3, 5, 7, 9, and 11 MTERF1 binding sites 6 base pairs apart upstream of the TATA box (FIG. 1A; SEQ ID NO: 41, 44, 45, 46 and 47, respectively). They were co-transfected with the MTF construct into Hela cells. […] Using flow cytometry, relative mCerulean levels were measured and calculated by normalization to the transfection control in Hela cells (FIG. 1C). […] Next, reporter plasmids with varying spacer lengths (0, 6 bp and 10 bp; SEQ ID NO: 48, 44 and 49, respectively) (FIG. 1F) between a fixed number of REs (i.e. 5 REs/MTERF1 binding sites) were transfected with the MTF construct. […] This was confirmed using flow cytometry (FIG. 1H). […]
With the goal to engineer stronger and possibly shorter HumTAPs, the inventors fused the MTERF158-399 peptide (SEQ ID NO: 1) to a variety of transactivation domains and transfected HEK293 cells with those constructs and the reporter construct comprising 5×RE/MTERF1 binding sites without a spacer between them (SEQ ID NO: 48).
First, MTERF158-399 (SEQ ID NO: 1) was fused with different subsequences of RelA. RelA361-551 (SEQ ID NO: 27) corresponds to the sequence used in the construction of the bacterial-derived synthetic TF PIT2 [19], while RelA342-551 (SEQ ID NO: 29) contains all annotated transactivation domains according to domain annotation under Uniprot Q04206 (https://www.uniprot.org/uniprotkb/Q04206/entry). […] We also fused MTERF158-399 (SEQ ID NO: 1) to a set of transactivation domains previously found to be strong activators with a small genetic footprint (FIG. 4B).
To further decrease the DNA footprint of a HumTAP, the inventors investigated to what degree the DNA binding domain may be reduced. To this end, the inventors created 3 versions of MTERF1 subsequences fused to RelA430-551 (SEQ ID NO: 3). MTERF173-399 (SEQ ID NO: 7), MTERF1104-399 (SEQ ID NO: 9), and MTERF1135-399 (SEQ ID NO: 11) are subunits of MTERF1 without its mitochondrial transfer peptide (MTERF11-57; SEQ ID NO: 37) that either lack only the first […] N-terminal amino acids (MTERF58-72; SEQ ID NO: 39) or additionally, also lack the first (MTERF173-98; SEQ ID NO: 104) or both the first and second (MTERF1104-134; SEQ ID NO: 106) mterf motifs (FIG. 5A). The removal of N-terminal domains reduces the genetic footprint of a HumTAP (FIG. 5B). These constructs were co-transfected into HEK293 cells with the reporter construct containing 5×RE without a spacer in its promoter (SEQ ID NO: 48).
In addition to RelA430-551 (termed “v1”), the inventors tested three alternative subsequences: v2) RelA342-551 (SEQ ID NO: 29), which contains all transactivation domains as annotated on UniProt Q04206; v3) RelA361-551 (SEQ ID NO: 27), which is identical to the peptide used in the construction of PIT2 [2]; and v4) RelA521-551 (SEQ ID NO: 31), which constitutes only the transactivation domain 1 (TA1). The protein domains WW (SEQ ID NO: 21), KRAB of ZNF473 (SEQ ID NO: 23), Nuc-rec-co-Act (SEQ ID NO: 25), LMSTEN (SEQ ID NO: 19), and FoxoTAD (SEQ ID NO: 17) were recently identified as strong transactivators. To assess their functionality in the HumTAP context, the inventors created fusion proteins between each of them and MTERF158-399 (SEQ ID NO: 1) (FIG. 9A).
Upon co-transfection of HEK293 cells with plasmids encoding pEF1a-driven expression of the fusion HumTAPs, a Response Element-driven mCerulean reporter protein, and a mCherry transfection control, all peptides derived from RelA except TA1 mediated high levels of reporter gene expression. […]

Test [2] has as its target T1, FKBP (SEQ ID NO: 142) and FRBT2098L (SEQ ID NO: 140) heterodimerization (Homo sapiens, UniProt P42345+P62942+Q04206, T2098L).
T1 construct: expressed in transfected cells; host or cells: HEK293
As to the kind of experiment: A/C heterodimerizer-inducible HumTAP gene expression system in HEK293 cells. The format is cell-based. The note with it: HEK293; constant A/C heterodimerizer concentration of 100 nM; FIG. 10B. From the text: One well-characterized small-molecule based dimerization system is based on the rapamycin analog A/C (C16-(S)-7-methylindolerapamycin) that induces heterodimerization between the human proteins FK506-binding protein 12 (FKBP; SEQ ID NO: 142) and the FKBP12-rapamycin binding domain (FRB) mutant FRBT2098L (SEQ ID NO: 140), [31]. To achieve A/C heterodimerizer-inducible gene expression, the inventors fused FKBP (SEQ ID NO: 142) to the N-terminus of MTERF158-399 (SEQ ID NO: 1) and FRB (SEQ ID NO: 140) to the C-terminus of different transactivation domains (FIG. 10A). […] In accordance with the results described above, chimeric transactivation domains mediated higher maximal output expression levels than RelA430-551.
The inventors reasoned that in the present system, dimerization might be hindered by either FRB's or FKBP's fusion partner and investigated whether the addition of linkers between the protein domains might impact the EC50 value (FIG. 10 D). A combination of the cMyc nuclear localization signal (NLS) (SEQ ID NO: 122) linking MTERF158-399 and FKBP, and the rigid linker AP6 (SEQ ID NO: 120) linking FRB and RelA430-551 led to a reduction in EC50 to ~60 nM while also increasing maximal output ~3-fold over the variant without linkers and RelA430-551 as TAD (FIG. 10 D).

T1 sequence (P62942 with tags, fused parts or gaps, stated change not applied, one chain of several): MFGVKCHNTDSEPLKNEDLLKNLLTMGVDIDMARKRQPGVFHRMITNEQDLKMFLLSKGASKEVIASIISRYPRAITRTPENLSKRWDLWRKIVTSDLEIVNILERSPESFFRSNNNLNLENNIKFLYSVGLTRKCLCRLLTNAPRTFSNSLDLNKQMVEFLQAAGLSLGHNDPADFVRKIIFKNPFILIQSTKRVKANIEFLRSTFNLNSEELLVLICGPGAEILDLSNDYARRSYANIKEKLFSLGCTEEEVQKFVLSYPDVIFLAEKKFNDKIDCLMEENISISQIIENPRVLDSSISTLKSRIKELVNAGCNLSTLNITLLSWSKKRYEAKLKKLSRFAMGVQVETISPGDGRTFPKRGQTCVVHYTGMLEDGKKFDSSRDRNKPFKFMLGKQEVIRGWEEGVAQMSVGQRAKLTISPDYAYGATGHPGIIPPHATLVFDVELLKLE

B1: SEQ ID NO: 56: MTERF158-399 fused to LMSTEN with TA1 (protein)
chain: EAQNVSSHVPYPVALHVNIVNVPQPAAAAIQRHYNDEDPEKEKRIKELELLLMSTENELKGQQVLPTQNHTCSYPGWHSTPGLPNGLLSGDEDFSSIADMDFSALLSQISS
As to B1, the “reporter (mCerulean) expression” value in test [1] was “smaller and stronger than the benchmark”.

B2: MTERF1104-399 with FoxoTAD: FoxoTAD: MTERF1104-399 (SEQ ID NO: 9) fused to FoxoTAD: FoxoTAD (SEQ ID NO: 33) (protein, listed as Homo sapiens)
chain: EQDLKMFLLSKGASKEVIASIISRYPRAITRTPENLSKRWDLWRKIVTSDLEIVNILERSPESFFRSNNNLNLENNIKFLYSVGLTRKCLCRLLTNAPRTFSNSLDLNKQMVEFLQAAGLSLGHNDPADFVRKIIFKNPFILIQSTKRVKANIEFLRSTFNLNSEELLVLICGPGAEILDLSNDYARRSYANIKEKLFSLGCTEEEVQKFVLSYPDVIFLAEKKFNDKIDCLMEENISISQIIENPRVLDSSISTLKSRIKELVNAGCNLSTLNITLLSWSKKRYEAKLKKLSRFAHEKFPSDLDLDMFNGSLECDMESIIRSELMDADGLDFNFDSHEKFPSDLDLDMFNGSLECDMESIIRSELMDADGLDFNFDS
In the case of B2, the “strength / reporter gene expression, fold over MTF” value in test [1] (chimeric TAD fused to MTERF1104-399, FIG. 9F) is given as ~ 1.5 fold.

B3: SEQ ID NO: 52: MTERF158-399 fused to chimeric TAD consisting of FoxoTAD, LMSTEN, and TA1 (protein)
chain: HEKFPSDLDLDMFNGSLECDMESIIRSELMDADGLDFNFDSEAQNVSSHVPYPVALHVNIVNVPQPAAAAIQRHYNDEDPEKEKRIKELELLLMSTENELKGQQVLPTQNHTCSYPGWHSTPGLPNGLLSGDEDFSSIADMDFSALLSQISS
Regarding B3, in test [1] (fused to MTERF158-399, FIG. 9C), the “reporter gene expression relative to RelA430-551” value was found to be 3.7 times.

B4: SEQ ID NO: 54: MTERF158-399 fused to FoxoTAD with LMSTEN (protein)
chain: HEKFPSDLDLDMFNGSLECDMESIIRSELMDADGLDFNFDSEAQNVSSHVPYPVALHVNIVNVPQPAAAAIQRHYNDEDPEKEKRIKELELLLMSTENELKGQQVLPTQNHTCSYPGWHST
Turning to B4, the “reporter (mCerulean) expression” value in test [1] is “smaller and stronger than the benchmark”.

B5: SEQ ID NO: 196: MTERF158-399 fused to two copies of the LMSTEN domain (protein)
chain: EAQNVSSHVPYPVALHVNIVNVPQPAAAAIQRHYNDEDPEKEKRIKELELLLMSTENELKGQQVLPTQNHTCSYPGWHSTEAQNVSSHVPYPVALHVNIVNVPQPAAAAIQRHYNDEDPEKEKRIKELELLLMSTENELKGQQVLPTQNHTCSYPGWHST
In the case of B5, the “mCerulean/reporter expression, fold more than one copy of the TAD” value in test [1] (two copies of TAD fused to MTERF158-399, Example 4, FIG. 9C) was ~ 2.7 fold.

B6: MTERF1135-399: MTERF1 lacking N-term and first and second Mterf motif, fused to RelA430-551 (protein, listed as Homo sapiens)
chain: TPENLSKRWDLWRKIVTSDLEIVNILERSPESFFRSNNNLNLENNIKFLYSVGLTRKCLCRLLTNAPRTFSNSLDLNKQMVEFLQAAGLSLGHNDPADFVRKIIFKNPFILIQSTKRVKANIEFLRSTFNLNSEELLVLICGPGAEILDLSNDYARRSYANIKEKLFSLGCTEEEVQKFVLSYPDVIFLAEKKFNDKIDCLMEENISISQIIENPRVLDSSISTLKSRIKELVNAGCNLSTLNITLLSWSKKRYEAKLKKLSRFA
Regarding B6, the “functionality of synTF with truncated DBD” value in test [1] (FIG. 9E) is reported as “non-functional”. In addition, in test [1] (N-terminally truncated MTERF1 fused to RelA430-551, reporter SEQ ID NO: 48 (Example 1, FIG. 5B)), the “output expression / transcriptional activation” value is listed as “complete loss of transcriptional activation”.

B7: SEQ ID NO: 194: MTERF158-399 fused to three TA1 domains (protein)
chain: PGLPNGLLSGDEDFSSIADMDFSALLSQISSPGLPNGLLSGDEDFSSIADMDFSALLSQISSPGLPNGLLSGDEDFSSIADMDFSALLSQISS
Regarding B7, in test [1], the “reporter (mCerulean) expression” value is given as “further increased output expression”.

B8: FRB::RelA430-551: FRBT2098L fused to RelA430-551 (protein)
chain: MVAILWHEMWHEGLEEASRLYFGERNVKGMFEVLEPLHAMMERGPQTLKETSFNQAYGRDLMEAQEWCRKYMKSGNVKDLLQAWDLYYHVFRRISQAGEGTLSEALLQLQFDDEDLGALLGNSTDPAVFTDLASVDNSEFQQLLNQGIPVAPHTTEPMLMEYPEAITRLVTGAQRPPDPAPAPLGAPGLPNGLLSGDEDFSSIADMDFSALLSQISS
With B8, the “molar excess over the MTERF158-399: FKBP plasmid giving the highest mCerulean levels” value in test [2] came out at 4 fold.

B9: SEQ ID NO: 58: MTERF158-399 fused to FoxoTAD with TA1 (protein)
chain: HEKFPSDLDLDMFNGSLECDMESIIRSELMDADGLDFNFDSPGLPNGLLSGDEDFSSIADMDFSALLSQISS
Turning to B9, in test [1], the “reporter (mCerulean) expression” value is “smaller and stronger than the benchmark”.
